One substance from PMC13185609 can be followed below.

Test [1] has as its target Env of the infectious molecular clone 246.F3-NL4.3+BN (HIV-1 (NL4.3) | HIV-1 (subtype AC, 246.F3)).
Test [2] deals with 246.F3 Env N276K (pseudovirus) (HIV-1 (subtype AC, 246.F3)).
Test [3] deals with 246.F3 Env, wild type (pseudovirus 246.F3-SG3 WT) (HIV-1 (subtype AC, 246.F3)).
Test [4] addresses 246.F3 Env N276D (pseudovirus made in Expi293F) (HIV-1 (subtype AC, 246.F3)).

For VRC01 (antibody), in test [1], the IC50 of neutralisation of the 246.F3-NL4.3+BN virus stock, TZM-bl cells is 0.35 µg/mL and the IC80 of neutralisation of the 246.F3-NL4.3+BN virus stock, TZM-bl cells was found to be 0.85 µg/mL. Further, the IC50 of neutralisation of pseudovirus, TZM-bl cells (highest concentration tested 50 µg/mL) in test [2] is greater than 50 µg/mL. Also, the IC50 of neutralisation of pseudovirus, TZM-bl cells in test [3] worked out at 0.204 µg/mL. For the same substance, the neutralisation of pseudovirus made in Expi293F cells, TZM-bl cells; fold change in sensitivity against wild-type 246.F3 in test [4] turned out to be 5 fold.
